Data as given in patent US11156558B2, “Assessment of stability of biological product in prefilled syringes” (Becton Dickinson France, priority 2016, dated 2021).

Tests used:
[1] = Stability of mimetic peptide solution stored in direct contact with adhesive and insoluble tungsten (UPLC/DAD); type: physicochemical; settings: insoluble tungsten, 3 days at 70° C., ammonium acetate pH4 buffer (20 mM)+0.02% tween 80, 45 μg/ml
Procedure: (§1) Peptide solutions were analyzed by LC/DAD/MS with Quattro premier XE Mass spectrometer from Waters.
The AAHAA (SEQ ID NO: 2) peptide was dissolved in ammonium acetate pH4 buffer (20 mM)+0.02% of tween 80 to a final concentration of 45 μg/ml. The AAHAA (SEQ ID NO: 2) peptide solution was stored in direct contact with the adhesive used to stake the needle to the syringe and with insoluble tungsten, a potential process residue, for 3 days at 70° C.
FIG. 3 is AAHAA (SEQ ID NO: 2) peptide ULPC/DAD chromatograms after 3 days at 70° C. in direct contact with two syringe components: (a) adhesive and (b) insoluble tungsten. (c) is chromatogram references.

[2] = Stability of mimetic peptide solution stored in direct contact with plunger stoppers (UPLC/DAD/MS); type: physicochemical
Procedure: as §1
The peptide AAWAA (SEQ ID NO: 1) was dissolved in ammonium acetate pH4 buffer (20 mM)+0.02% Tween 80 to a final concentration of 45 μg/ml. The obtained AAWAA (SEQ ID NO: 1) peptide solutions were stored in direct contact with a non-coated and an ETFE coated plunger stoppers for 30 days at 25° C./60% RH.
FIG. 1 is a UPLC/DAD chromatogram of AAWAA (SEQ ID NO: 1) pentapeptide in direct contact with a coated and a non-coated plunger stopper after 15 days (c, d) and 30 days (a,b) of storage at 25° C./60% RH. Chromatograms e and f are AAWAA (SEQ ID NO: 1) solutions references (without any direct contact with plunger stoppers),
FIG. 2 is the electrospray positiv (ESI+) mass spectra of (a) intact AAWAA (SEQ ID NO: 1) peptide (Retention time of 17.2 min) and (b) oxidized form of AAWAA (SEQ ID NO: 1)(Retention time of 17.1 min) detected after 30 days (25° C.) of contact between the non-coated plunger stopper and AAWAA (SEQ ID NO: 1) peptide solution.

Substance	reaction with syringe component (degradation) [1]	oxidized form (ESI+ mass spectra) ([2]; after 30 days (25° C.) of contact with the non-coated plunger stopper)	degradation yield ([2]; non-coated vs ETFE coated plunger stopper, direct contact, 30 days at 25° C./60% RH, ammonium acetate pH4 buffer (20 mM)+0.02% Tween 80, 45 μg/ml)
Ala-Ala-His-Ala-Ala (AAHAA; synthesized pentapeptide) [mimetic model pentapeptide]	react with insoluble tungsten	–	–
Ala-Ala-Trp-Ala-Ala (AAWAA; synthesized pentapeptide) [mimetic model pentapeptide]	–	detected	more important when the peptide is in direct contact with the non-coated plunger stopper
